Legend:
[1] = molecular target: TRIM28 (endogenous human TRIM28 protein) (human (endogenous in HeLa)) (UniProt Q13263)
[2] = molecular target: ZNF10 KRAB-AB KRAB-AB (Homo sapiens) (UniProt P21506); conditions: cited from earlier work
Sequence of ZNF10 KRAB-AB KRAB-AB (Homo sapiens) (P21506 14-85): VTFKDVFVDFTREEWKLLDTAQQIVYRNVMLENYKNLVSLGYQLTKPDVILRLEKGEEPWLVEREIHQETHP

Sequence of TRIM28 (endogenous human TRIM28 protein) (human (endogenous in HeLa)) (Q13263 whole entry): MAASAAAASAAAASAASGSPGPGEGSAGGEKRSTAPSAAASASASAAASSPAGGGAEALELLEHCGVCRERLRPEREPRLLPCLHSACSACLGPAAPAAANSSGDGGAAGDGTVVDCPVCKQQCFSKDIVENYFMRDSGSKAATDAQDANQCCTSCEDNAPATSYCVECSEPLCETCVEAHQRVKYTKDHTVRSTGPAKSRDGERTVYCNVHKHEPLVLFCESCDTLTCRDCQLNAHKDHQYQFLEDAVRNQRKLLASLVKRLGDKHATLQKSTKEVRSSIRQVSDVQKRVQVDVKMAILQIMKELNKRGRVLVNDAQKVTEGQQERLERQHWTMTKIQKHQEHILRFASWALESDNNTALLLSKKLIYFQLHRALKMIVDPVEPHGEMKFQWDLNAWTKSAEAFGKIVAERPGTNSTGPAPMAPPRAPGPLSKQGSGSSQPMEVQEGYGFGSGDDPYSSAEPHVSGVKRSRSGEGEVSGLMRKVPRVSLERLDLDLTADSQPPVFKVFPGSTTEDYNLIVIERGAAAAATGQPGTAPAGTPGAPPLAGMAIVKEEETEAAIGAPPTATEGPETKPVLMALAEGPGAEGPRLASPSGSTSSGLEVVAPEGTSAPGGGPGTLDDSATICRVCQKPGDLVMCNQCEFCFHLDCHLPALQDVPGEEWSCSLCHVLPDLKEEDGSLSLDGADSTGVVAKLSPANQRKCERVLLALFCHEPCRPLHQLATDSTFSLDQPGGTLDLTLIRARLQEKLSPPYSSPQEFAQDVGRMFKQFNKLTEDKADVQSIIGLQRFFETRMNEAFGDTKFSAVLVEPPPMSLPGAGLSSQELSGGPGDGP
Sequence of TRIM28 (Q13263 2-835): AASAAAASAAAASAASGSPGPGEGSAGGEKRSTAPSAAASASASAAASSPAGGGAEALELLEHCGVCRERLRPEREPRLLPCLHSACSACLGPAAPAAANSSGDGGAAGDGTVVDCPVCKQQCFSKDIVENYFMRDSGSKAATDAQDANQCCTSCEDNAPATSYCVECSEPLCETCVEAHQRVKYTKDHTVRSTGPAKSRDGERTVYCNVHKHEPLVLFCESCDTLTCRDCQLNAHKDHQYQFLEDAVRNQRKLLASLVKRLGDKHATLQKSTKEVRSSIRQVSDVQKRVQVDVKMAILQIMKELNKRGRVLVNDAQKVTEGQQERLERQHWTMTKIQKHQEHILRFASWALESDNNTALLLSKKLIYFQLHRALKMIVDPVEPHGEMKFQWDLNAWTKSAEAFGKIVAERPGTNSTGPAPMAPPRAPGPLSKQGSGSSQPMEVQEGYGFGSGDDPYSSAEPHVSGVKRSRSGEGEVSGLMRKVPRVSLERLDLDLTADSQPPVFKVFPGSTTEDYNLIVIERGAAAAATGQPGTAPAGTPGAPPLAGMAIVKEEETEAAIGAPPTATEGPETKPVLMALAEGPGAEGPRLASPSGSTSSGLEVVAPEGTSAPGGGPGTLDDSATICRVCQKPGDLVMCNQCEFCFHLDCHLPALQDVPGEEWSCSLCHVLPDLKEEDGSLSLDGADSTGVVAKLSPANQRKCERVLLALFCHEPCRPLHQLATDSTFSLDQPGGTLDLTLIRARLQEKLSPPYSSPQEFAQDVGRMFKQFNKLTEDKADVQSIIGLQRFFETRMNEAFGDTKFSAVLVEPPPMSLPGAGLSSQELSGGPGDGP

Row | Substance | fold repression of a Gal4-site luciferase reporter by Gal4-XFIN-KRAB-AB in EPC fish cells with co-transfected human TRIM28 (negligible without it) [1] | Kd [2]
1 | GST-XFIN-KRAB-AB (corrected KRAB-AB domain of Xenopus laevis XFIN fused to glutathione S-transferase) (domain or fragment) | 2 fold | –
2 | TRIM28 (from UniProt Q13263) | – | 142 nM

From PMC3912051
